Starred links: 1 amine or outer side, 2 acyl side, 3 side chain; linkers in the order of their positions; H or OH if unused. Non-standard residues stand in square brackets, D forms with d. Groups on a side chain read outwards from the residue. Primed or numbered codes have the meaning given here. No end group written: not given here. *: point of attachment. C20 diacid = O=C(O)CCCCCCCCCCCCCCCCCCC(=O)*; C18 diacid = O=C(O)CCCCCCCCCCCCCCCCC(=O)*; γGlu = O=C(O)[C@H](CCC(=O)[*:2])N[*:1]; Stearoyl = CCCCCCCCCCCCCCCCCC(=O)*; Palmitoyl = CCCCCCCCCCCCCCCC(=O)*; αMeF = C[C@](N)(Cc1ccccc1)C(=O)O; Myristoyl = CCCCCCCCCCCCCC(=O)*; (PEG)2 = polyethylene glycol 2; PEG2′ = polyethylene glycol 2; αMeS = C[C@](N)(CO)C(=O)O; AEEA = NCCOCCOCC(=O)O; Aib = CC(C)(N)C(=O)O
What was measured:
human glucagon receptor = human glucagon receptor (human, UniProt P47871); test: cell-based or functional assay
human GLP-1 receptor = human GLP-1 receptor (human, UniProt P43220); test: cell-based or functional assay

Row | cAMP production, hGluc-R EC50 (pM) (human glucagon receptor) | cAMP production, hGLP-1R EC50 (pM) (human GLP-1 receptor) | Binder
1 | 0.857 pM | 1.42 pM | HSQGS[αMeF]TSDVSKILDSK([(PEG)2-(PEG)2-γGlu-Myristoyl])AAQD[αMeF]VQ[Aib]IINT-NH2 [Peptide 122]
2 | 1.2 pM | 1.07 pM | HSQGS[αMeF]TSDVSKILDSK([(PEG)2-(PEG)2-γGlu-γGlu-Palmitoyl])AAQD[αMeF]VQ[Aib]IINT-NH2 [Peptide 118]
3 | 2.09 pM | 1.92 pM | HSQGS[αMeF]TSDVSKILDSKAAQD[αMeF]VQ[Aib]IAN-NH2 (not fully specified (residue 17)) [Peptide 111]
4 | 2.62 pM | 1.81 pM | HSQGS[αMeF]TSDVSKILDSK([(PEG)2-(PEG)2-γGlu-Stearoyl])AAQD[αMeF]VQ[Aib]IINT-NH2 [Peptide 120]
5 | 34.3 pM | 0.949 pM | H[αMeS]QGS[αMeF]TSDVSKILDSK([PEG2′-PEG2′-γGlu-γGlu-Myristoyl])AAQD[αMeF]VQ[Aib]IINT-NH2 [Peptide 132]

Continued, binder first:

Row | Binder | cAMP production, hGluc-R EC50 (pM) (human glucagon receptor) | cAMP production, hGLP-1R EC50 (pM) (human GLP-1 receptor)
6 | H[Aib]QGS[αMeF]TSDVSKILDSK([(PEG)2-(PEG)2-γGlu-Palmitoyl])AAQD[αMeF]VQ[Aib]IINT-NH2 [Peptide 128] | 4.7 pM | 0.788 pM
7 | HSQGS[αMeF]TSDVSK[Aib]LDSK([AEEA-AEEA-γGlu-C18 diacid])AAQD[αMeF]VQ[Aib]IAN-NH2 (N-terminus assumed; SMILES CC[C@H](C)[C@H](NC(=O)C(C)(C)NC(=O)[C@H](CCC(N)=O)NC(=O)[C@@H](NC(=O)[C@](C)(Cc1ccccc1)NC(=O)[C@H](CC(=O)O)NC(=O)[C@H](CCC(N)=O)NC(=O)[C@H](C)NC(=O)[C@H](C)NC(=O)[C@H](CCCCNC(=O)COCCOCCNC(=O)COCCOCCNC(=O)CC[C@H](NC(=O)CCCCCCCCCCCCCCCCC(=O)O)C(=O)O)NC(=O)[C@H](CO)NC(=O)[C@H](CC(=O)O)NC(=O)[C@H](CC(C)C)NC(=O)C(C)(C)NC(=O)[C@H](CCCCN)NC(=O)[C@H](CO)NC(=O)[C@@H](NC(=O)[C@H](CC(=O)O)NC(=O)[C@H](CO)NC(=O)[C@@H](NC(=O)[C@](C)(Cc1ccccc1)NC(=O)[C@H](CO)NC(=O)CNC(=O)[C@H](CCC(N)=O)NC(=O)[C@H](CO)NC(=O)[C@@H](N)Cc1c[nH]cn1)[C@@H](C)O)C(C)C)C(C)C)C(=O)N[C@@H](C)C(=O)N[C@@H](CC(N)=O)C(N)=O) [Peptide 1] | > 27100 pM | 3200 pM
8 | HSQGS[αMeF]TSDVSKILDSK([(PEG)2-(PEG)2-γGlu-Palmitoyl])AAQD[αMeF]VQ[Aib]IINT-NH2 [Peptide 121] | 1.2 pM | 1.5 pM
9 | H[αMeS]QGS[αMeF]TSDVSKILDSK([PEG2′-PEG2′-γGlu-γGlu-Palmitoyl])AAQD[αMeF]VQ[Aib]IINT-NH2 [Peptide 131] | 17.8 pM | 0.511 pM
10 | H[Aib]QGS[αMeF]TSDVSKILDSK([(PEG)2-(PEG)2-γGlu-Myristoyl])AAQD[αMeF]VQ[Aib]IINT-NH2 [Peptide 129] | 4.1 pM | 0.462 pM
11 | H[Aib]HGS[αMeF]TSDVSK[αMeF]LDSK([AEEA-AEEA-γGlu-γGlu-C20 diacid])AARD[αMeF]VQ[Aib]IANT-NH2 (N-terminus assumed; SMILES CC[C@H](C)[C@H](NC(=O)C(C)(C)NC(=O)[C@H](CCC(N)=O)NC(=O)[C@@H](NC(=O)[C@](C)(Cc1ccccc1)NC(=O)[C@H](CC(=O)O)NC(=O)[C@H](CCCNC(=N)N)NC(=O)[C@H](C)NC(=O)[C@H](C)NC(=O)[C@H](CCCCNC(=O)COCCOCCNC(=O)COCCOCCNC(=O)CC[C@H](NC(=O)CC[C@H](NC(=O)CCCCCCCCCCCCCCCCCCC(=O)O)C(=O)O)C(=O)O)NC(=O)[C@H](CO)NC(=O)[C@H](CC(=O)O)NC(=O)[C@H](CC(C)C)NC(=O)[C@](C)(Cc1ccccc1)NC(=O)[C@H](CCCCN)NC(=O)[C@H](CO)NC(=O)[C@@H](NC(=O)[C@H](CC(=O)O)NC(=O)[C@H](CO)NC(=O)[C@@H](NC(=O)[C@](C)(Cc1ccccc1)NC(=O)[C@H](CO)NC(=O)CNC(=O)[C@H](Cc1c[nH]cn1)NC(=O)C(C)(C)NC(=O)[C@@H](N)Cc1c[nH]cn1)[C@@H](C)O)C(C)C)C(C)C)C(=O)N[C@@H](C)C(=O)N[C@@H](CC(N)=O)C(=O)N[C@H](C(N)=O)[C@@H](C)O) [Peptide 14] | 462 pM | 93.8 pM
12 | H[Aib]QGS[αMeF]TSDVSKILDSK([(PEG)2-(PEG)2-γGlu-Stearoyl])AAQD[αMeF]VQ[Aib]IINT-NH2 [Peptide 127] | 12.6 pM | 0.998 pM
13 | HSQGS[αMeF]TSDVSKILDSK([(PEG)2-(PEG)2-γGlu-γGlu-Myristoyl])AAQD[αMeF]VQ[Aib]IINT-NH2 [Peptide 119] | 1.7 pM | 1.39 pM
14 | H[Aib]QGS[αMeF]TSDVSKILDSK([(PEG)2-(PEG)2-γGlu-γGlu-Palmitoyl])AAQD[αMeF]VQ[Aib]IINT-NH2 [Peptide 125] | 6.68 pM | 0.575 pM
15 | H[Aib]HGS[αMeF]TSDVSK[αMeF]LDSK([AEEA-AEEA-γGlu-C18 diacid])AARD[αMeF]VQ[Aib]IANT-NH2 (N-terminus assumed; SMILES CC[C@H](C)[C@H](NC(=O)C(C)(C)NC(=O)[C@H](CCC(N)=O)NC(=O)[C@@H](NC(=O)[C@](C)(Cc1ccccc1)NC(=O)[C@H](CC(=O)O)NC(=O)[C@H](CCCNC(=N)N)NC(=O)[C@H](C)NC(=O)[C@H](C)NC(=O)[C@H](CCCCNC(=O)COCCOCCNC(=O)COCCOCCNC(=O)CC[C@H](NC(=O)CCCCCCCCCCCCCCCCC(=O)O)C(=O)O)NC(=O)[C@H](CO)NC(=O)[C@H](CC(=O)O)NC(=O)[C@H](CC(C)C)NC(=O)[C@](C)(Cc1ccccc1)NC(=O)[C@H](CCCCN)NC(=O)[C@H](CO)NC(=O)[C@@H](NC(=O)[C@H](CC(=O)O)NC(=O)[C@H](CO)NC(=O)[C@@H](NC(=O)[C@](C)(Cc1ccccc1)NC(=O)[C@H](CO)NC(=O)CNC(=O)[C@H](Cc1c[nH]cn1)NC(=O)C(C)(C)NC(=O)[C@@H](N)Cc1c[nH]cn1)[C@@H](C)O)C(C)C)C(C)C)C(=O)N[C@@H](C)C(=O)N[C@@H](CC(N)=O)C(=O)N[C@H](C(N)=O)[C@@H](C)O) [Peptide 13] | 44 pM | 15.9 pM

Reference: patent US12630600B2 (MEDIMMUNE LIMITED, priority 2022, dated 2026)
